Where two headings read alike, the source gives them in different places. Each block holds one molecule with its values, some of them ahead of it.
Assays:
[1] = Influence of L-dopa concentration, Km by Lineweaver-Burk plot; type: biochemical; conditions: L-dopa 0.05-5 mM
Description: The measurement of the dopa oxidase activity was conducted by the method of Fling et al. (Fling et al. J. Biol. Chem. 238: 2045-2053, 1963). The transformation of L-dopa which was the substrate of dopa oxidase into a brown product of dopachrome by tyrosinase was measured at 475 nm. […] 3 mM of L-dopa was added into 50 mM of tris-HCl buffer solution (pH 7.5) and incubated at 370 for 10 minutes. Then, 30 μl of human tyrosinase was added and the absorbance change was measured at 475 nm for 3 minutes. At this time, the unit of the activity of the enzyme was defined as follows. When 1 μmole of dopachrome was produced for 1 minute, this activity was defined as 1 unit (μmole/min). […]
The concentration of the substrate, L-tyrosine was given in a range of 0.01-1 mM, and the influence of the substrate concentration onto the recombinant human tyrosinase prepared by example 2 was evaluated. […] The Km value of the recombinant human tyrosinase according to the present invention was calculated by the Lineweaver-Burk Plot (Lineweaver et al., J. Am, Chem. Soc., 56; 658-666, 1934).
The concentration of L-dopa, which is another substrate of the human tyrosinase was given in a range of 0.05-5 mM and the influence of the substrate concentration with respect to the recombinant human tyrosinase prepared in example 2 was examined. The dopa oxidase activity is measured by the same method of experiment 2. […]

[2] = Influence of L-tyrosine concentration, Km by Lineweaver-Burk plot; type: biochemical
Description: (§1) The measuring of the tyrosine hydroxylase activity was conducted according to a method of Husain et al. (Husain et al., J. Invest. Dermatol. 78: 243-252, 1982). Hydroxylation was conducted within an L-Dopa concentration range of 0-30 mM. A standard curve with respect to L-dopa was obtained. Using the standard curve, the amount of L-dopa produced after the reaction was determined. The reaction solution was prepared by adding 100 μM of L-tyrosine, L-dopa of each concentration, 4 mM of ascorbic acid and 100 μl of human tyrosinase into 50 mM Potassium phosphate buffer solution (pH 6.8) to obtain 2.5 ml of the solution. After that, the reaction was conducted at 37° C. for 3 hours. At this time, a reaction was conducted without adding the purified human tyrosinase as a control. The product was subjected to excitation at 360 nm and then was subjected to an emission at 490 nm by a method of Ram et al. (Ram et al., J. Biol. Chem. 267: 23707-23712, 1992). The intensity of the emission was measured. The measured value was converted into the concentration of L-dopa and the enzyme activity was measured. The specific activity with respect to the tyrosine hydroxylase activity of the purified human tyrosinase of the present invention was determined as the created mol number (mmol) of the L-dopa with respect to the amount of the enzyme (μg) per hour.
The concentration of the substrate, L-tyrosine was given in a range of 0.01-1 mM, and the influence of the substrate concentration onto the recombinant human tyrosinase prepared by example 2 was evaluated. It is conducted by the same method of measuring the tyrosine hydroxylase activity explained in the experiment 1. The Km value of the recombinant human tyrosinase according to the present invention was calculated by the Lineweaver-Burk Plot (Lineweaver et al., J. Am, Chem. Soc., 56; 658-666, 1934).

[3] = Tyrosine hydroxylase activity of human tyrosinase (method of Husain et al., fluorescence of L-dopa formed); type: biochemical; conditions: for Increase of specific tyrosine hydroxylase activity of the His-bind purified enzyme compared to the crude extract: His-bind resin purified vs crude extract
Description: as §1

[4] = Dopa oxidase activity of human tyrosinase (method of Fling et al., dopachrome at 475 nm); type: biochemical
Description: The measurement of the dopa oxidase activity was conducted by the method of Fling et al. (Fling et al. J. Biol. Chem. 238: 2045-2053, 1963). The transformation of L-dopa which was the substrate of dopa oxidase into a brown product of dopachrome by tyrosinase was measured at 475 nm. […] 3 mM of L-dopa was added into 50 mM of tris-HCl buffer solution (pH 7.5) and incubated at 370 for 10 minutes. Then, 30 μl of human tyrosinase was added and the absorbance change was measured at 475 nm for 3 minutes. At this time, the unit of the activity of the enzyme was defined as follows. When 1 μmole of dopachrome was produced for 1 minute, this activity was defined as 1 unit (μmole/min). Specific activity was defined as 1 unit per 1 mg enzyme.

[5] = read-out: Km value to L-tyrosine, cited from earlier work
[6] = literature value, Spritz et al. 1997; cited from earlier work
[7] = purification step: crude extract
[8] = purification step: His.bind resin chromatography
[9] = purification step: DEAE-Sephacel chromatography

B3: Recombinant human tyrosinase of comparative example 1 (pHis-hTyr): Recombinant human tyrosinase produced in E. coli with pHis-hTyr vector by the method of Korean Patent Application No. 2001-0057379 (protein, UniProt P14679 19-529, looked up)
Tyrosinase: HFPRACVSSKNLMEKECCPPWSGDRSPCGQLSGRGSCQNILLSNAPLGPQFPFTGVDDRESWPSVFYNRTCQCSGNFMGFNCGNCKFGFWGPNCTERRLLVRRNIFDLSAPEKDKFFAYLTLAKHTISSDYVIPIGTYGQMKNGSTPMFNDINIYDLFVWMHYYVSMDALLGGSEIWRDIDFAHEAPAFLPWHRLFLLRWEQEIQKLTGDENFTIPYWDWRDAEKCDICTDEYMGGQHPTNPNLLSPASFFSSWQIVCSRLEEYNSHQSLCNGTPEGPLRRNPGNHDKSRTPRLPSSADVEFCLSLTQYESGSMDKAANFSFRNTLEGFASPLTGIADASQSSMHNALHIYMNGTMSQVQGSANDPIFLLHHAFVDSIFEQWLRRHRPLQEVYPEANAPIGHNRESYMVPFIPLYRNGDFFISSKDLGYDYSYLQDSDPDSFQDYIKSYLEQASRIWSWLLGAAMVGAVLTALLAGLVSLLCRHKRKQLPEEKQPLLMEKEDYHSLYQSHL
modifications: His tag
- Km ([5]; value from previous filing or literature): 170 µM
- Purification degree (dopa oxidase specific activity relative to crude extract) [4, 9]: 3.5 fold
- Specific activity (dopa oxidase) [4, 9]: 1.4 units/mg
- Total activity (dopa oxidase) [4, 9]: 64 units
- Purification degree (dopa oxidase specific activity relative to crude extract) [4, 8]: 65.0 fold
- Specific activity (dopa oxidase) [4, 8]: 26.0 units/mg
- Total activity (dopa oxidase) [4, 8]: 26 units
- Purification degree (dopa oxidase specific activity relative to crude extract) [4, 7]: 1.0 fold
- Specific activity (dopa oxidase) [4, 7]: 0.4 units/mg
- Total activity (dopa oxidase) [4, 7]: 136 units

B4: purified tyrosinase from human HeLa cell: Tyrosinase purified from human HeLa cell (Spritz et al., 1997) (protein, UniProt P14679 19-529, looked up)
Tyrosinase: B3 Tyrosinase
- Specific activity with respect to tyrosine hydroxylase activity [6]: 22.3±0.01 μmol/1 g/h

More lines, main results first:

- Affinity onto the substrate L-tyrosine, times higher [2]: ≥ 100 times
- Total activity (dopa oxidase) [4, 8]: 2977 units
- Total activity (dopa oxidase) [4, 7]: 6200 units
B1: Recombinant human tyrosinase of example 2 (pET-hTyrosinase(TM-)): Human tyrosinase with C-terminal transmembrane domain (55 amino acids) removed, SEQ ID NO: 2, expressed in E. coli with six … (protein)
chain: MHFPRACVSSKNLMEKECCPPWSGDRSPCGQLSGRGSCQNILLSNAPLGPQFPFTGVDDRESWPSVFYNRTCQCSGNFMGFNCGNCKFGFWGPNCTERRLLVRRNIFDLSAPEKDKFFAYLTLAKHTISSDYVIPIGTYGQMKNGSTPMFNDINIYDLFVWMHYYVSMDALLGGSEIWRDIDFAHEAPAFLPWHRLFLLRWEQEIQKLTGDENFTIPYWDWRDAEKCDICTDEYMGGQHPTNPNLLSPASFFSSWQIVCSRLEEYNSHQSLCNGTPEGPLRRNPGNHDKSRTPRLPSSADVEFCLSLTQYESGSMDKAANFSFRNTLEGFASPLTGIADASQSSMHNALHIYMNGTMSQVQGSANDPIFLLHHAFVDSIFEQWLRRHRPLQEVYPEANAPIGHNRESYMVPFIPLYRNGDFFISSKDLGYDYSYLQDSDPDSFQDYIKSYLEQASRI
modifications: C-terminal His6 tag; Human tyrosinase
- Km [1]: 340 µM
- Km ([2]; L-tyrosine 0.01-1 mM, Lineweaver-Burk plot): 1.32 µM
- Km to L-tyrosine, times lower than Km of earlier tyrosinases ([2]; at the most, vs 0.17 mM, 2.34 μM and 0.2 mM): about 130 times
- Increase of specific tyrosine hydroxylase activity of the His-bind purified enzyme compared to the crude extract [3]: about 52 times
- Specific activity (tyrosine hydroxylase) ([3]; purification step: His.bind resin chromatography (finally purified), listed as Recombinant human tyrosinase of example 2 (pET-hTyrosinase(TM-))): 108.3 ± 2.10 µmol/mg/h
- Specific activity (tyrosine hydroxylase) ([3]; purification step: His.bind resin chromatography (finally purified), listed as recombinant human tyrosinase): 108.3 ± 2.10 µmol/mg/h
- Specific activity (tyrosine hydroxylase) [3, 7]: 2.1 ± 0.05 µmol/mg/h
- Purification degree (dopa oxidase specific activity relative to crude extract) [4, 8]: 46 fold
- Specific activity (dopa oxidase) [4, 8]: 807 units/mg
- Purification degree (dopa oxidase specific activity relative to crude extract) [4, 7]: 1.0 fold
- Specific activity (dopa oxidase) [4, 7]: 17.7 units/mg
- Specific dopa oxidase activity, times higher than recombinant human tyrosinase of comparative example 1 ([4]; vs Korean Patent Application No. 2001-0057379 (comparative example 1)): about 31 times
- Specific dopa oxidase activity, times higher than recombinant human tyrosinase of comparative example 2 ([4]; vs Korean Patent Application No. 2002-0073728 (comparative example 2)): about 1.2 times

- Total activity (dopa oxidase) [4, 9]: 4460 units
- Total activity (dopa oxidase) [4, 8]: 1922 units
- Total activity (dopa oxidase) [4, 7]: 5700 units
B2: Recombinant human tyrosinase of comparative example 2 (pET-hTyr): Recombinant human tyrosinase produced in E. coli with pET-hTyr vector by the method of Korean Patent Application No. 2002-0073728 (protein, UniProt P14679 19-529, looked up)
Tyrosinase: B3 Tyrosinase
- Km ([5]; value from previous filing): 2.34 µM
- Increase of specific tyrosine hydroxylase activity of the His-bind purified enzyme compared to the crude extract [3]: about 49 times
- Specific activity (tyrosine hydroxylase) [3, 9]: 11.0 ± 0.12 µmol/mg/h
- Specific activity (tyrosine hydroxylase) ([3]; purification step: His.bind resin chromatography (finally purified)): 88.0 ± 1.50 µmol/mg/h
- Specific activity (tyrosine hydroxylase) [3, 7]: 1.8 ± 0.05 µmol/mg/h
- Purification degree (dopa oxidase specific activity relative to crude extract) [4, 9]: 5 fold
- Specific activity (dopa oxidase) [4, 9]: 69.7 units/mg
- Purification degree (dopa oxidase specific activity relative to crude extract) [4, 8]: 49 fold
- Specific activity (dopa oxidase) [4, 8]: 699 units/mg
- Purification degree (dopa oxidase specific activity relative to crude extract) [4, 7]: 1.0 fold
- Specific activity (dopa oxidase) [4, 7]: 14.3 units/mg
